Usually AUC stands for the area under the concentration-time curve, a measure of exposure. Low values mean low exposure, high ones high exposure.

Consider one molecule from US8840886B2, “Method of treating cancer with DLL4 antagonist and chemotherapeutic agent” (Regeneron Pharmaceuticals, Inc., priority 2009, dated 2014).

The subject of data set [1] is human HCT116 tumor cells (CRC). Put plainly: HCT116 colorectal xenograft tumor growth, REGN421 with 5-FU (Example 5). It is filed as in vivo, mouse. As to conditions: REGN421 2 mg/kg sc (6 mg/kg total dose). The method, then: The effect of anti-Dll4 Ab (REGN421) in combination with 5-FU on tumor growth was evaluated on tumors implanted in humanized Dll4 SCID mice. Each mouse was implanted subcutaneously (sc) with 5×10^6 human HCT116 tumor cells (CRC). After the tumors were established in the mice (tumor size of ˜150 mm^3, 22 days after implantation), tumors were measured and randomized. The mice were then treated with hFc, REGN421, 5-FU or combination of REGN421 and 5-FU. A total of 30 mice were divided into 6 groups (n=5 per cohort). The first group was treated sc with hFc at 2 mg/kg; the second group was treated sc with REGN421 at 2 mg/kg; the third and fourth groups were treated ip with 5-FU at 15 and 25 mg/kg, respectively; the fifth group was treated sc with REGN421 at 2 mg/kg and ip with 5-FU at 15 mg/kg; and the sixth group was treated sc with REGN421 at 2 mg/kg and ip with 5-FU at 25 mg/kg. REGN421 was administered every 3-4 days starting on day 22 and mice received three doses total. 5-FU was administered every 3-4 days starting on day 22 and mice received three doses total.
To assess the effects of REGN421 and 5-FU as single agents or in combination, the changes in tumor size (volume) were measured, beginning three days before the initial REGN421 treatment, and then on the day of each agent treatment (days 22, 26, 29) and thereafter every 3-4 days until tumors reach ˜600 mm^3 in size. In vivo tumor size is calculated using the formula (length×width^2)/2 (FIG. 3 and Table 5).

Data set [2] has as its system human A549 tumor cells (non-small cell lung cancer). Put plainly: A549 NSCLC xenograft tumor growth, REGN421 with cisplatin (Example 2). In kind it is in vivo, mouse. As to conditions: REGN421 2 mg/kg sc (6 mg/kg total dose). Here is the method:
The effect of REGN421 in combination with cisplatin on tumor growth was evaluated on tumors implanted in humanized Dll4 SCID mice, as described above. Each mouse was implanted subcutaneously (sc) with 5×10^6 human A549 tumor cells (non-small cell lung cancer or “NSCLC”). After the tumors were established in the mice (tumor size of 100-150 mm^3, approximately 29 days after implantation), tumors were measured, randomized and treated with hFc, REGN421, cisplatin or combination of REGN421 and cisplatin. A total of 36 mice were divided into 6 groups (n=6 per cohort). The first group was treated sc with hFc at 2 mg/kg; the second group was treated sc with REGN421 at 2 mg/kg; the third and fourth groups were treated ip with cisplatin at 2.5 and 4.5 mg/kg, respectively; the fifth group was treated sc with REGN421 at 2 mg/kg and ip with cisplatin at 2.5 mg/kg; and the sixth group was treated sc with REGN421 at 2 mg/kg and ip with cisplatin at 4.5 mg/kg. REGN421 was administered every 3-4 days starting on day 29 and mice received three doses total. Cisplatin was administered every 24 hours starting on day 29 and mice received two doses total.
To assess the effects of REGN421 and cisplatin as single agents or in combination we measured tumor size (volume), beginning three days before the initial REGN421 treatment, on the day of each agent treatment (days 29, 30, 33, 36) and thereafter every 3-4 days until tumors reached ˜600 mm^3 in size. In vivo tumor size was calculated using the formula (length×width^2)/2.

Data set [3] in a line: Phase I pharmacokinetics of REGN421, single 30-min IV infusion, ELISA (Example 8). In kind it is in vivo, human. As to conditions: mean. The method, then: REGN421 is currently being studied in a first-in-human trial. The primary objective of the study is to determine the recommended dose of REGN421 for future efficacy trials. The secondary objectives are to characterize the drug safety profile, its pharmacokinetics, immunogenicity, and pharmacodynamics, as well as preliminary evidence of efficacy. In this study, anti-hDll4 antibody REGN 421 is administered intravenously every 3 weeks to patients whose cancer has progressed on conventional therapy. The study design follows standard methodology for dose escalation and definition of dose-limiting toxicity. To date, 7 patients have been treated at 0.25 mg/kg/dose every three weeks, and 6 patients have been treated at 0.50 mg/kg/dose every three weeks. For the pharmacokinetic study, blood samples were taken at pre-dose, 0 hour, and post-dose 1, 2, 4 and 8 hours on Day 1, followed by Days 2, 3, 4, 8 and 15 of Cycle 1; and pre-dose, 0 hour on Day 1 of Cycles≧2, and post-treatment follow-up on Days 15, 30 and 60. Plasma/serum levels of REGN421 in the samples are measured by ELISA with an upper limit of quantification of 2.5 μg/mL and a lower limit of quantification of 0.039 μg/mL in the undiluted serum sample. The study is ongoing with the intent to administer higher doses, defined in the protocol as 1, 2, 4, and 7 mg/kg/dose.
The currently available data showing plasma pharmacokinetic parameters following single 30-min. Cmax: Maximum serum concentration of the drug; Tlast: Time to the last quantifiable concentration of the drug; Clast: Last quantifiable concentration of the drug; AUClast: Area under curve up to the last concentration of the drug; AUC: Total area under the curve (i.e., drug exposure); t1/2Z: Terminal half life; Vss: Volume of distribution at steady state; CL: Drug clearance rate. Values are: mean, (CV %), and [range] (a: median [range]).

B1: REGN421: anti-hDll4 antibody comprising HCVR/LCVR combination of SEQ ID NO:116/118 (antibody, V domains shown)
VH: QVQLVESGGGVVQPGRSLRLSCAASGFTFSSYGMHWVRQAPGKGLEWVSFLWYDGTNKNYVESVKGRFTISRDNSKNMLYLEMNSLRAEDTAVYYCARDHDFRSGYEGWFDPWGQGTLVTVSS
VL: EIVLTQSPATLSLSPGERATLSCRASQSVSSYLAWYQQKPGQAPRLLIYDASNRATGIPARFSGSGSGTDFTLTISSLEPEDFAVYYCQHRSNWPPTFGGGTKVEIK
On to B1, for which the TGD in data set [1] was 6 days; in data set [2] it was 8 days. In addition, the AUC turned out to be 489 µg·h/mL in data set [3] (0.25 mg/kg IV, n = 7 patients) and 963 µg·h/mL in data set [3] (0.5 mg/kg IV, n = 2 patients). The AUClast in data set [3] (0.25 mg/kg IV, n = 7 patients) was determined as 452 µg·h/mL; in data set [3] (0.5 mg/kg IV, n = 2 patients), 759 µg·h/mL.
